Measured values as given in US20240327522A1 (Genentech, published 2024).

What was measured:
cyno.aVb8.13650 = target: T1, cyno.aVb8.13650 (cynomolgus, UniProt A0A2K5WCD3 31-992; G7P0S0 43-684); assay: SPR binding assay, experiment 2, antibody as ligand, aVb8 as sample
T1 construct: Carries another lot/construct number than cyno.aVb8-19393; kept apart; also called cynomolgus αvβ8

[1] = target: T2, recombinant mouse αvβ8 protein (PARS-17103) (murine, UniProt P43406 31-988; Q0VBD0 43-681, limits assumed); assay: as above
T2 construct: Made in house; also called mu.aVb8.17103
T2 sequence (P43406 31-988 limits assumed, chain 1 of 2): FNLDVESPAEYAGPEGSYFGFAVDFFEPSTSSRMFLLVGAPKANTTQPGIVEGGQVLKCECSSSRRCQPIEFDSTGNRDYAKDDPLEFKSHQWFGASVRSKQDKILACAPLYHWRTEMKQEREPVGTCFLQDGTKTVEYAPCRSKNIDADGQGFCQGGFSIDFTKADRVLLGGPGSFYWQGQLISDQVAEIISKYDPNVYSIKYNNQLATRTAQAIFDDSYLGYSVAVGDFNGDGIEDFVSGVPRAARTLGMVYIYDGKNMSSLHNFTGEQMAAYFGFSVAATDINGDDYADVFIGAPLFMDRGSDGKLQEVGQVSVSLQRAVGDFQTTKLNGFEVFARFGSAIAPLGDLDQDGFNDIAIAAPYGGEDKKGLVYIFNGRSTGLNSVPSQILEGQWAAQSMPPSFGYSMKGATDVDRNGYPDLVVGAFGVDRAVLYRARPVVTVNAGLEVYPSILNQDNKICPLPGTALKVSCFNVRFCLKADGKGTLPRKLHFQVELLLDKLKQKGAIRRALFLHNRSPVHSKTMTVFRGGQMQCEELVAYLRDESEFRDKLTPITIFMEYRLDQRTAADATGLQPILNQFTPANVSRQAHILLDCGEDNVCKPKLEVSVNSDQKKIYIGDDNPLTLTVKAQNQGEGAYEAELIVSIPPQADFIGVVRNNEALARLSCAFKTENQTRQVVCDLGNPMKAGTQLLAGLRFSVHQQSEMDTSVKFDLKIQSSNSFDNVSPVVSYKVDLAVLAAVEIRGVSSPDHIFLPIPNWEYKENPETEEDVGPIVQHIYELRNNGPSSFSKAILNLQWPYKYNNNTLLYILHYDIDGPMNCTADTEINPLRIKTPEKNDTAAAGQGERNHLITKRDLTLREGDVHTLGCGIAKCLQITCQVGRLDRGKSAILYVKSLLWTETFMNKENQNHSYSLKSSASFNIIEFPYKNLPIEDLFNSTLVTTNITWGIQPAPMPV
T2 sequence (Q0VBD0 43-681 limits assumed, chain 2 of 2): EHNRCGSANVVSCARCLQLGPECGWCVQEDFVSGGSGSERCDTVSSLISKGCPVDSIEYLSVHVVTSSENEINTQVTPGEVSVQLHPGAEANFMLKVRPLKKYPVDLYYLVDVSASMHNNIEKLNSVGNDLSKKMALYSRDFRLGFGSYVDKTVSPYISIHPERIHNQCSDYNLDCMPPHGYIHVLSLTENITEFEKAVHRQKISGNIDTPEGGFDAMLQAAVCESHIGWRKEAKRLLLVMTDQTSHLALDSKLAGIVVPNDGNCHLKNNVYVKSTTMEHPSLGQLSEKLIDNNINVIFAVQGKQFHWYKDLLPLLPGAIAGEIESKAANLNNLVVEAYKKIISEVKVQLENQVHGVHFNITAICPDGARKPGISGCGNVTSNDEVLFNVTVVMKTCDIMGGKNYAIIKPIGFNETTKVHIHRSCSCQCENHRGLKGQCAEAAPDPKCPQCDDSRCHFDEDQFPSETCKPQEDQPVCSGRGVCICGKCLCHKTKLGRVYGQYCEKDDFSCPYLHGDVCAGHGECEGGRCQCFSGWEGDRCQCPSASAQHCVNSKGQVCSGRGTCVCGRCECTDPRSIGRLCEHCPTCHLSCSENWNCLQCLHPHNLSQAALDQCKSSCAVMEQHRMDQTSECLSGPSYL

B1: Hu.aVb8-65.H15L2 (aVb8-65.H15L2.hIgG1.LALAPG) (antibody, V domains shown)
VH: EVQLLESGGGLVQPGGSLRLSCAASGIDLSNYAMIWVRQAPGKGLEWVGIISSSDRIWYASWVKGRFTISRDNSKNTLYLQMNSLRAEDTAVYYCSRSVSNSYFDGWNLWGQGTLVTVSS
VL: DIQMTQSPSSVSASVGDRVTITCQASENINSLLAWYQQKPGKAPKLLIYRASTLASGVPSRFSGSGSGTDFTLTISSLQPEDFATYYCQSNYGFTGSGAFFYGFGQGTKVEIKR
notes: Human IgG1 LALAPG; also called PARS-20475-65 (IH) aVb8-65.H15L2.hIgG1.LALAPG; humanized αvβ8-65
Binder B1 has a Kd (cyno.aVb8.13650) of 2.41 nM, a koff (cyno.aVb8.13650) of 0.000151 s⁻¹ and a kon (cyno.aVb8.13650) of 62700 M⁻¹ s⁻¹. It also gave a Kd [1] of 1.23 nM, a koff [1] of 0.000152 s⁻¹ and a kon [1] of 123000 M⁻¹ s⁻¹.
